# Assay results from the supplement of paper PMC9732359.
# ± gives the uncertainty stated by the source.
# Test: protein stability index of a GFP-peptide fusion (yeast GPS) (PSI 1-4); higher = more stable; sorted into four equal gates, so the index is relative within each strain
# Settings: san1∆
# Summary of the method: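 Plasmids isolated from each sorting gate were PCR-amplified and Illumina-sequenced, and barcodes assigned the reads to strains. The gates, four of equal size, were set by GFP/Cherry fluorescence ratio on mid-log cultures in leucine-free medium. These cultures were yeast carrying a pooled library of tiled 17-residue yeast protein peptides fused downstream of GFP on a plasmid that also expresses Cherry. The protein stability index is the sum of every gate's read frequency times its gate number.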
row,Sequence,protein stability index
1,AAASESDVAKQLASFGY [RPL16B],2.28 ± 0.037
2,AAATFPIAQPATDVEAR [RPL13A],2.71 ± 0.066
3,AAEGLCKLFLADVFTDD [YCG1],3.14 ± 0.043
4,AAGTSQARTATLKYICA [RPC10],1.72 ± 0.11
5,AAKKRRPAAKGKNLSFK [RRP6],2.35 ± 0.2
6,AALANANNNINSASSAP [SWI1],2.88 ± 0.13
7,AALERLKIFEGIPPPYD [RPL16B],1.34 ± 0.23
8,AALGMGLCMLGTGKPEA [RPN2],3.44 ± 0.066
9,AALYKEVYNVIASDGSY [RPO21],2.22 ± 0.15
10,AANEGTAVSFVSAAEDE [PRP28],3.01 ± 0.19
11,AATNETFENINSLFYLK [IRR1],2.71 ± 0.17
12,AATVHTATSSSIILSDK [SSN2],2.02 ± 0.053
13,AAVLSNLQGDLQAIQEK [ITC1],3.31 ± 0.16
14,ACEPTAEKFVPIDIFQI [SIR3],2.66 ± 0.07
15,ACGAFININEFALPAGS [CDC53],1.99 ± 0.12
16,ACVPLLPPPEDVAFLKT [RPN1],2.79 ± 0.043
17,ADLDSLIIRNDSLSGAV [RPT3],2.82 ± 0.049
18,ADLESFANNHFLNSNAV [COR1],2.99 ± 0.056
19,ADLQGSEDHSFRKIKLR [RPS1A],3.06 ± 0.047
20,ADPVALYLGLKRGEVVK [RPB5],1.32 ± 0.14
21,ADVLYKTAFKPHELTES [QCR2],2.98 ± 0.051

row,Sequence,protein stability index
1,ADVSKLMYSITFHHHGR [SRB2],2.79 ± 0.049
2,ADWDPESMAYTAFQTQR [YML031W/NDC1],3.24 ± 0.17
3,ADYNGALLRVTKSKNKT [POP4],2.42 ± 0.077
4,AEASGEAADEADEADEE [RPS9A],3.01 ± 0.15
5,AEDQILANFVAKGFYHT [SRB8],3.25 ± 0.12
6,AEGQTNSISDFLGEQVN [RPN1],2.98 ± 0.077
7,AELEELEEFEFKHGPMS [SMD2],3.15 ± 0.058
8,AELELVDSLDPFSEGVT [SMC4],2.75 ± 0.12
9,AELLVLKILKQVMEEKL [PUP2],2.69 ± 0.24
10,AEMEADSLASELTLAEQ [SMC4],2.94 ± 0.15
11,AENLLQLKTGLAAIVST [YGL172W/NUP49],2.99 ± 0.087
12,AESFTDEADSSMTEASV [SNF2],3.39 ± 0.05
13,AFKKIDAITVKDVKAWA [COR1],1.83 ± 0.14
14,AFKSVVSTETFEQPSQR [RPL27A],2.71 ± 0.053
15,AFPHLYNSRPRSVRIPW [PRP8],1.7 ± 0.13
16,AFPNASKKNRPTLQVGD [RRP40],2.78 ± 0.16
17,AFRTIESKSDDNSATSY [RRI1],3.15 ± 0.053
18,AFSPLTTTRIQSQQAQP [MED2],2.52 ± 0.061
19,AGDLRALDTVTNVLNFI [FAS1],2.95 ± 0.11
20,AGHVSGVITVHNVFSKE [RPN14],2.92 ± 0.077
21,AGKVKSQTPKVEKTEKP [RPS30A],2.95 ± 0.072

# Same assay, conditions: ubr1∆
row,Sequence,protein stability index
1,AAASESDVAKQLASFGY [RPL16B],2.356 ± 0.019
2,AAATFPIAQPATDVEAR [RPL13A],2.29 ± 0.04
3,AAEGLCKLFLADVFTDD [YCG1],3.14 ± 0.039
4,AAGTSQARTATLKYICA [RPC10],2.24 ± 0.094
5,AAKKRRPAAKGKNLSFK [RRP6],2.72 ± 0.1
6,AALANANNNINSASSAP [SWI1],2.55 ± 0.12
7,AALERLKIFEGIPPPYD [RPL16B],1.27 ± 0.064
8,AALGMGLCMLGTGKPEA [RPN2],3.36 ± 0.088
9,AALYKEVYNVIASDGSY [RPO21],3.06 ± 0.12
10,AATVHTATSSSIILSDK [SSN2],2.39 ± 0.041
11,ACEPTAEKFVPIDIFQI [SIR3],2.98 ± 0.048
12,ACGAFININEFALPAGS [CDC53],1.87 ± 0.074
13,ACVPLLPPPEDVAFLKT [RPN1],2.65 ± 0.048
14,ADLDSLIIRNDSLSGAV [RPT3],3 ± 0.049
15,ADLESFANNHFLNSNAV [COR1],2.71 ± 0.082
16,ADLQGSEDHSFRKIKLR [RPS1A],3.15 ± 0.048
17,ADPVALYLGLKRGEVVK [RPB5],1.37 ± 0.13
18,ADVLYKTAFKPHELTES [QCR2],3.15 ± 0.045
19,ADVSKLMYSITFHHHGR [SRB2],2.98 ± 0.04
20,ADWDPESMAYTAFQTQR [YML031W/NDC1],3.36 ± 0.12

row,Sequence,protein stability index
1,ADYNGALLRVTKSKNKT [POP4],2.36 ± 0.053
2,AEASGEAADEADEADEE [RPS9A],3.45 ± 0.12
3,AEDQILANFVAKGFYHT [SRB8],3.05 ± 0.065
4,AEGQTNSISDFLGEQVN [RPN1],3.12 ± 0.059
5,AELEELEEFEFKHGPMS [SMD2],3.34 ± 0.071
6,AELELVDSLDPFSEGVT [SMC4],3.11 ± 0.054
7,AELLVLKILKQVMEEKL [PUP2],2.56 ± 0.24
8,AEMEADSLASELTLAEQ [SMC4],3.39 ± 0.26
9,AENLLQLKTGLAAIVST [YGL172W/NUP49],2.5 ± 0.2
10,AESFTDEADSSMTEASV [SNF2],3.09 ± 0.089
11,AFKATNQTNINSLAVRG [SCL1],2.84 ± 0.11
12,AFKKIDAITVKDVKAWA [COR1],1.9 ± 0.039
13,AFKSVVSTETFEQPSQR [RPL27A],3.11 ± 0.067
14,AFPHLYNSRPRSVRIPW [PRP8],2.59 ± 0.066
15,AFPNASKKNRPTLQVGD [RRP40],2.99 ± 0.17
16,AFRTIESKSDDNSATSY [RRI1],3.34 ± 0.091
17,AFSPLTTTRIQSQQAQP [MED2],2.8 ± 0.036
18,AGDLRALDTVTNVLNFI [FAS1],2.54 ± 0.24
19,AGHVSGVITVHNVFSKE [RPN14],2.79 ± 0.13
20,AGKVKSQTPKVEKTEKP [RPS30A],2.93 ± 0.055
